Laboratory results taken from article PMC11117474.
Each block holds one molecule with its values, some of them ahead of it.

Tests used:
NUPR1 (Homo sapiens) = NUPR1 (Homo sapiens) (UniProt O60356); conditions: cited from earlier work
[1] = target: RYBP (RING1A and YY1 binding protein) (UniProt Q8N488); assay: other fluorescence titration; ARM-PKP1 0-20 uM added to fixed RYBP 4.6 uM; 25 °C; 20 mM Tris pH 7.5, 5 mM TCEP, 150 mM NaCl; fluorescence at 330 nm; fit with ligand depletion
[2] = target: armadillo-repeat domain of plakophilin 1 (ARM-PKP1); assay: ITC; RYBP (100 uM) in the syringe titrated into ARM-PKP1 (10 uM) in the cell; 25 °C; 20 mM Tris pH 7.5, 5 mM TCEP, 150 mM NaCl; single binding site model

UniProt O60356, sequence (O60356 whole entry): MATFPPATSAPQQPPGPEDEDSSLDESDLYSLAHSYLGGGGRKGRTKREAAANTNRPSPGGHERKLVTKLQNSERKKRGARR

Molecule: Plakophilin 1 ARM domain (from UniProt Q13835)
Kd (NUPR1 (Homo sapiens)): 10 µM

Kd [1]: 9 µM
Molecule: armadillo-repeat domain of plakophilin 1 (ARM-PKP1) (domain or fragment)

Kd [2]: 12 µM
dH [2]: -11.9 kcal/mol
stoichiometry N [2]: 1
B1: RYBP (RING1A and YY1 binding protein) (natural protein)
chain: MTMGDKKSPTRPKRQAKPAADEGFWDCSVCTFRNSAEAFKCSICDVRKGTSTRKPRINSQLVAQQVAQQYATPPPPKKEKKEKVEKQDKEKPEKDKEISPSVTKKNTNKKTKPKSDILKDPPSEANSIQSANATTKTSETNHTSRPRLKNVDRSTAQQLAVTVGNVTVIITDFKEKTRSSSTSSSTVTSSAGSEQQNQSSSGSESTDKGSSRSSTPKGDMSAVNDESF
